# Data reported in paper PMC2685181 (The Journal of neuroscience : the official journal of the …, 2008).
# Where no end group is shown, it is not given here.
# Molecular target: WT β1b_core (core region of Ca2+ channel β1b subunit, G58-T418) (human, UniProt Q02641-1 58-418)
# Assay: pull-down
# WT β1b_core (core region of Ca2+ channel β1b subunit, G58-T418), sequence (Q02641 58-418): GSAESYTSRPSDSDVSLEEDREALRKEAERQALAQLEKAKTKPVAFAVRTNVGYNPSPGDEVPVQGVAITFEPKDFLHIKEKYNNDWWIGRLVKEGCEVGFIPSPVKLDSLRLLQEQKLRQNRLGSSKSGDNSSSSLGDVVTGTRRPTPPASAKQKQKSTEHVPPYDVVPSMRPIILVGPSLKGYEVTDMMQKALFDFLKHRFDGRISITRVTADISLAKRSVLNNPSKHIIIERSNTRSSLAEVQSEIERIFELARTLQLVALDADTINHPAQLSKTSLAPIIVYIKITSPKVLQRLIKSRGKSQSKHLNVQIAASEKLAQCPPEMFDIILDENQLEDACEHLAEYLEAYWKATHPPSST
row,binding result,Binder
1,binds,"RVENRRAFAAAAALKLRRQQQIERELNGYMEWISKAEEVILAEDETDVEQ (domain or fragment, rabbit, UniProt P27884 369-413, looked up) [GST_I-II loop with five alanines inserted between F376 and L377]"
2,binds,"GST_I-II loop with seven glycines inserted between F376 and L377 (domain or fragment, rabbit, UniProt P27884 369-413, looked up, not fully specified) RVENRRAFGGGGGGGLKLRRQQQIERELNGYMEWISKAEEVILAEDETDVEQ"
3,binds,"GST_I-II loop with seven alanines inserted between F376 and L377 (domain or fragment, rabbit, UniProt P27884 369-413, looked up) RVENRRAFAAAAAAALKLRRQQQIERELNGYMEWISKAEEVILAEDETDVEQ"
4,binds,"RVENRRAFGGGGGLKLRRQQQIERELNGYMEWISKAEEVILAEDETDVEQ (domain or fragment, rabbit, UniProt P27884 369-413, looked up, not fully specified) [GST_I-II loop with five glycines inserted between F376 and L377]"
